Results: paper PMC7467306

Key:
[1] = target: human insulin receptor isoform A (human) (UniProt P06213); experiment: radioligand binding; competition with [125I]-monoiodotyrosyl-TyrA14-insulin on intact human IM-9 lymphocytes (human IR-A)
[2] = target: human IGF-1 receptor (human) (UniProt P08069); experiment: radioligand binding; competition with [125I]-monoiodotyrosyl-IGF1 on intact mouse fibroblasts transfected with human IGF-1R and with deleted mouse IGF-1R
[3] = target: His-tagged domain 11 (D11) of human IGF2R (human) (UniProt P11717); experiment: radioligand binding; competition of unlabeled ligand (10^-12-10^-6 M) with [125I]-monoiodotyrosyl-Tyr2-IGF2 (43000 cpm, 0.02 nM) for D11 held in wells on iBodies; 16 h at 5 °C, HEPES binding buffer pH 7.6 with 1 % BSA; one-site fit with ligand depletion, Kd of the tracer set to 2 nM
Sequence of UniProt P11717 (P11717 1508-1651): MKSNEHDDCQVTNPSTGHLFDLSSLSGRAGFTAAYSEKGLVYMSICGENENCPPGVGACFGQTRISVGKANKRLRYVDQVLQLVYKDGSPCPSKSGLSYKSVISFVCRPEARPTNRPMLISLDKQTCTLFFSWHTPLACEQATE

Sequence of UniProt P06213 (P06213 other isoform, or with tags, fused parts or gaps): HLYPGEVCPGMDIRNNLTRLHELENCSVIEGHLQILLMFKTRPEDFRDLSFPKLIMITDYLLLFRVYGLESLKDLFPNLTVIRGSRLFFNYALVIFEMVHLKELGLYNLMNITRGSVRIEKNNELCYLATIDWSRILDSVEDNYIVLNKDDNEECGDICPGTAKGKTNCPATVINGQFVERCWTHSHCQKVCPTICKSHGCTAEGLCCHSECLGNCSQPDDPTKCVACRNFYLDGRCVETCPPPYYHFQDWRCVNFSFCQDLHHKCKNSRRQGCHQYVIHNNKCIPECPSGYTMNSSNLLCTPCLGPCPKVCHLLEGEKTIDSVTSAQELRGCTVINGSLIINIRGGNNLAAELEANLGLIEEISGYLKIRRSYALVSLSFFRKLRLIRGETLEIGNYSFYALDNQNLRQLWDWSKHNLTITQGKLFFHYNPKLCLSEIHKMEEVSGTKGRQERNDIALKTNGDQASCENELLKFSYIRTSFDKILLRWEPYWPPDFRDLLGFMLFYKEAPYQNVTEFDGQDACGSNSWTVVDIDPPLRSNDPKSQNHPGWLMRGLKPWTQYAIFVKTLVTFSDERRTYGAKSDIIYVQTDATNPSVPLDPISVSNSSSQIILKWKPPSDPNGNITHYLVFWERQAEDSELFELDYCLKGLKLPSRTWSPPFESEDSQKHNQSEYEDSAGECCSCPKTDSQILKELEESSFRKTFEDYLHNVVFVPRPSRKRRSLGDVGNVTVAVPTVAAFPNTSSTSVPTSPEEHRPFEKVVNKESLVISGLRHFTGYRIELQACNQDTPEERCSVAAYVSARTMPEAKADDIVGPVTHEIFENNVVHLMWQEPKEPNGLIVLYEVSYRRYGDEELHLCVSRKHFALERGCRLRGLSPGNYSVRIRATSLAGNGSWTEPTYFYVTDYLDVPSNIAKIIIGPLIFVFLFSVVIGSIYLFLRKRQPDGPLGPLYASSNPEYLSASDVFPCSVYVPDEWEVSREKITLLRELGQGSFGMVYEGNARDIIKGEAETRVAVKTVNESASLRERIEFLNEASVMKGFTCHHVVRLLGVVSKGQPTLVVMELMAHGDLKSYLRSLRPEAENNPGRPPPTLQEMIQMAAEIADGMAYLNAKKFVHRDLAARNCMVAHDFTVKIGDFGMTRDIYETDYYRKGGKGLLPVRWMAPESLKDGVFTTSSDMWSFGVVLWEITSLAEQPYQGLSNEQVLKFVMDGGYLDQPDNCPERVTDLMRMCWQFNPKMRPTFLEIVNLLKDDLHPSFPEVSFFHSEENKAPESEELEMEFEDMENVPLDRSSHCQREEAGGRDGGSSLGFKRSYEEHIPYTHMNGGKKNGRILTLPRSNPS

Kd [1]: 7.3 nM
Kd [2]: 1.1 nM
Kd [3]: 0.28 nM
Substance: Leu19-IGF2 analog (ligand)
